B1: TPR t1 (parent)
chain: GACCAAUCUGCCCUCAGAGCUCGAGAACAUCUUCGGAUGCAGAGGAGGCAGGCUUCGGUGGCGCGAUAGCGCCAACGUCCUCAACCUCCAAUGCAUCCCACCACAUGAUGAUGCCUGAAGAGCCUUGGUUUUUUG

Variants of: B1
Assay: polymerase ribozyme fitness, log enrichment relative to wild type (log ratio); higher = more active; in vitro selection for triplet polymerase activity
How it was run: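 Only genotypes with ≥10 input reads and ≥1 read per output were kept after Illumina sequencing of input and output libraries. These libraries were PCR-built, transcribed mutants of each subunit of a heterodimeric triplet polymerase ribozyme, each put through one triplicate in vitro selection round with frozen incubation at −7 °C, gel excision of extended constructs, streptavidin-bead capture and RT-PCR. Fitness is a logarithmic ratio of genotype enrichment to wild-type enrichment, from inverse-variance-weighted replicate averages, with the logarithm in base 2.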

| Variant | polymerase ribozyme fitness (log ratio) |
| --- | --- |
| G52C C53A C97U C101U | -1.86 |
| A29U G48U C72G G120A | -3.12 |
| U38A | -0.984 |
| G93U A100U | -1.72 |
| G42U C72G C99A A103C C123U | -6.66 |
| C8G C34G | -6.45 |
| C3A G44C U112G C124U U125C | -1.64 |
| C4A C8A G36A C72G C99G C104A C124U | -6.92 |
| A5U C40U C88A C101A A121U | 0.119 |
| G71U U78G | -0.594 |
| A6U A74U | 0.241 |
| U129G U133A | -2 |
| G10A G117C | -4.43 |
| A29U C49A C64U C82A C97G A121G U133C | -3.41 |
| C4G G36U | -2.8 |
| G10U C73U | -0.579 |
| C11G C70U G122U | -0.676 |
| G69U A118C | -2.03 |
| A6U C8U C40U A43U G48C U132A | -1.71 |
| G63U G127U | -1.73 |
| C53U G57U C101A U109G | -6.08 |

| Variant | polymerase ribozyme fitness (log ratio) |
| --- | --- |
| A46G C56A C62G U130G U131C | -4.26 |
| A37G U109G | -5.43 |
| A68G C73U C124U G135U | -3.48 |
| G17C G69U C79G | -4.17 |
| C34A G48U G93C | -4.96 |
| G44U G61C | -2.36 |
| C28G G39U C53U G63C U78C C124A | -3.85 |
| U7A A66G C73G C124A | 0.101 |
| C53A C82G A118G | -0.931 |
| A2U G71C C101U G127U | -2.85 |
| C64G C114G | -6.51 |
| C73G C89A C104U A119U | -3.03 |
| C22A A37G U81A A121C | -6.04 |
| C8A C12U A16U C40A C62U U87A | -1.51 |
| A6C A43G G63U G69A G117C | -5.96 |
| A5C C8A C12U U54A C56U G63U C98G | -7.29 |
| G45C G60C A84G | -2.3 |
| G63C C86U G120A | -0.703 |
| U59A C80U | -0.689 |
| G61C U112G | -2.38 |
| C22U A37U | -4.82 |

| Variant | polymerase ribozyme fitness (log ratio) |
| --- | --- |
| C11A C13G C20U C53U U78G | -2.65 |
| C20G U112A | -2.38 |
| A41U C72U C88U | -1.2 |
| G44U C53G G71U C73A C82U U129G | -3.9 |
| C11A G61U C102U | -3.03 |
| C11A A95U U96A C101G U106C C124A | -3.67 |
| G39U C94G G110A | -1.31 |
| C62U G113U | -3.01 |
| G45A G113A | -1.71 |
| A37C A43C C53A G71C C86U A91C | -6.26 |
| G47A G48U | -1.13 |
| G69C C86U | -1.37 |
| U9G C34A A41G | -3.4 |
| C88G C114U | -1.84 |
| G52A C56A | -0.146 |
| C13U C73G | -0.465 |
| C13G C70U | -1.62 |
| C31U G39C G44U C85G G110C | -6.47 |
| C62U A90C | -2.52 |
| G63A A91G | -2.33 |
| U54A U106A | -1.04 |

| Variant | polymerase ribozyme fitness (log ratio) |
| --- | --- |
| C82A A111U | -3.3 |
| U9C C22U C34A A43G G77A U106A | -7.59 |
| G25U U32G C72A G110A | -6.9 |
| C72U C85U G93U | -2.45 |
| C40U G45C C49U G63U A83U C124G | -6.14 |
| G45C C101A U106C | -2.07 |
| U78A C94G C101A | -1.93 |
| G19A C20A U59C U96A | -5.13 |
| C72A G93U G110U | -2.37 |
| A27C A90U | -5.3 |
| C11U U96A G110U | -2.95 |
| G10U G69A A91C | -7.2 |
| C49A A111C G113U | -5.03 |
| C56A C73A | -0.651 |
| A43G C49G C98U G120C | -3.88 |
| C3G G120C | -0.918 |
| C53U C62U U125A G128A U130A | -3.39 |
| A41G C101A | -1.25 |
| A119C C124A | -2.4 |
| C3G A50U C94G | -4.4 |

Reference: the RNAGym collection of RNA variant scans (doi:10.1073/pnas.2313332121)
